Measured values as given in a protein production outcome set (Wang et al. 2014).

Experiment: label from the status in PepcDB records

Row | Sequence | protein production
1 | MYCRMEFNFFMNDVVQMARKEMVESGYDQLTTPEEVDEVLKEKGTVLVMVNSVCGCAGGIARPAAAYMKNYDKKPDRFVTVFAGQDKEATARAREYFKGYAPSSPSFALLKDGEIQMMVERHEIEGHEPIQVVQKLEKAFDQYCS | failed
2 | MYCWNPELYAFSSSAQKSWGIELLTKFPLKGNERVLDVGCGDGKLSAEIAKRLPEGSVLGIDLSEAMVCFAKNHYPKEQFPNLSFMLMDAGNVPFESEFDVIFSNAALHWIKEPKAIETVLKGFLKSLRPEGKLLAQFGGRGNAAEVLLVLNSMLEDEKWSPYFGNFVFPYGFYGPEEYGKWLKNAGFSVRRAELYSKDMTLKGKEGLSGWFASTWHPFTQRVPENLKEEFIDELAVNFIKLHPLDNEGYVHIRMVRLEIEADIEK | failed
3 | MYEDNAACIAQLKDGYIKGDRTKHILPKFFFTHDLQKSGDVRVLQIRSNDNLSDLFTKALPTATFKKLVYRIGLRRLKDLDEYTHKGE | failed
4 | MYEIKGHHHISMVTKNANENNHFYKNVLGLRRVKMTVNQDDPSMYHLFYGDKTGSPGTELSFFEIPLVGRTYRGTNAITRIGLLVPSEDSLHYWKERFEKFDVKHSEMTTYANRPALQFEDAEGLRLVLLVSNGEKVEHWETWEKSEVPAKHQIQGMGSVELTVRRLDKMASTLTEIFGYTEVSRNDQEAIFQSIKGEAFGEIVVKYLDGPTEKPGRGSIHHLAIRVKNDAELAYWEEQVKQRGFHSSGIIDRFYFKSLYFRESNGILFEIATDGPGFTVDGDVEHLGEKLDLPPFLEDQRAEIEANLAPIEEK | not failed
5 | MYELVSPVNPLAVLRYIGHLLLVFSAVLLVPVLAAFVLGETDAAVIYGSSALVTAGTGFLLQKVLPDFELEIKEALILAALTFPLCSLVSAVPMAFSTGMPFLDAYFECVSGLTTTGLSLAPPSPTRLFFFTRSWLQWIGGIGIIVLVLGILIRPGTTAFRLYRVNFGESRIRPSVITTARTLGTVYLVLTLLSLLLLLFSGMPFYDAVCHTLSSISTGGFSTQAGSIGAYGGFLIPFLITVSCIMGAISFSLYPEVLKEPGTLIRDPQVRYLFGLSLLGTALFVLTLSGGEGGPELFHMMPDAVFQVVSALTGTGFSTIDLAPLSDASKGFLSAIMCIGGSIGSTTGGIKLFRLIVIVQLIKLVFYRFFLPREAITPLKVKSQVVDPDDFYRIMTYVLLYLAVLVFSAFIFMFYGINSADAIFETSSALATAGLSTGVTTPGMPSLLKLVLCADMLLGRVEIVPLFILLLPRTWFEINRNTGEKRSSKDTA | failed
6 | MYENKIVPLQMDRRKYLQSCVENMSITFVLFGTINIFFNLLINLINIGRINYEHFFKLFSITSGLWIVIILVQITSYLFSSGFFENLATIFLHDNERNKGDIWNIKSIGMFLINIITLGWLSIFSFYGIFSYIINSFDLINNFMLSTTILNFSVNLLFVLNQFLYFLFKVHEIRNIEFHNCLIHFLPGFSRMLESIVLTVKSKIMDNLSKNKNFVKAKNKKRFIDHNSYPYGDQ | failed
7 | MYFLLNLVGLIVIMAVVFLCSPQKKKIKWRPIITLIVLELLITWFMLGTKVGSWAIGKIGDFFTWLIACASDGIAFAFPSVMANETVDFFFSALLPIIFIVTFFDILTYFGILPWLIDKIGWVISKASRLPKLESFFSIQMMFLGNTEALAVIRQQLTVLSNNRLLTFGLMSMSSISGSIIGSYLSMVPATYVFTAIPLNCLNALIIANLLNPVHVPEDEDIIYTPPKEEKKDFFSTISNSMLVGMNMVIVILAMVIGYVALTSAVNGILGVFVHGLTNQTIFAYLFSPFAFLLGLPVHDAMYVAQLMGMKLATNEFVAMLDLKNNLKSLPPHTVAVATTFLTSFANFSTVGMIYGTYNSILDGEKSTVIGRNVWKLLVSGIAVSLLSAAIVGLFVW | failed
8 | MYHILIRKGLLNMKTVLIVGANGRVSIEATKIFLENSRFNVDLFLRNAHRIPDYASNRIKVYEGDAKNIEDLESALNNVDVVFASLSGSLDKQAETIVKAMDNKNVKRLIFVAAPGIYDELPEPFNQWNKEQFGEKLNRYRKASDIIENSDLDYTIIRPGWLTDKNENVYEITAKNETFKGTEVSRKSVASLAVQIAKNPELHSKENIGVNKPNTEGNKPAWFN | failed
9 | MYHVTVGISEKEYDAFAIASSQTNLLHSSKWAQVKSNWQNERLGFYKDDQLVAVASILIKSLPLGFTMLYIPRGPIMDYSNKELVNFVLKTLKNFGRKKRAVFAKFDPALLLRQYHLKEENVAEEIDESRQAIDNLKSAGAQWIGPTKAISETIQPRFQANIYTKANIEENFPKHTKRLIKDAKHRGVQIYRANIDDLPKFATVVALTENRKGVALRNENYFHQLMTIYGEDAYLYLAKVNLPKRLAQFKEQLLQIQKDLSETPSHQKSRLTRLNQQEASVKQYILEFQEFSKKYPDEPVIAGILSIRFGNVLEMLYAGMDDSFRKFYPQYLLNARVFEDAFKNDIVSANLGGVEGSLNDGLTKFKSNFNPMFEEYIGEFNLAINPLLYKLANLAYTIRKKQRHSH | failed
10 | MYIMNIFITDFYHRNDLLDKAEAMIANHWPAFMMGTSVDDSYWERLYDVPFSHYQFMAVLKTQTEEKVIGVINSIALPWQTNSLNDLPDEGWDRVFQLGMEAEEQQLPCHLISALSVTIDHHYRGKGIAQRLINTLKEHAKKQGYLGVAVPVRPTLKHCYPLHSFAEYCQWKNDNDEPFDPWIRTHWRL | failed
11 | MYKCLIISILTWFSCIVSVYAQAIPKEARNYLEEGKIYYDGANYLKALDSYLGAYKFVPNDPGVNYSIALCYIQTYSYDKALTYLIPAKKAGIKDPLLDYYMGLAYHANSNIDEALKSLTAFQSTLRSSDKELTAQTAKYITYCNNAKTLMLTPVKMTITNLGASVNSAYPDYNPAISVDESTIIYTSRRPNSTGGLISEMDGHYFEDIYMSNKQTNNSWGTSIQIDQTINTTSHDACVGLSSEGQTMIVYKDDGGGDLYYSNLSGQNWSKPISFGKAINTDGWEACGNFSPDGNYLFFVSNKKGGFGGTDIYYAVKNAAGVWGAPVNMGPEINTKEDEFSPYLHADGKTFYFSSQAHTSMGGFDIFQSTIDLSMQPIAVKSKPENLGYPINTVGDEIYFVWSADNKRAYFSSAREGGLGDKDLYLLERPVAKAALVLLKGTISDCKTKEFIQASITVTDIESGKLIGKYVSNSSTGKYIVTLPAGKNYSITVEAKGYLFHSKNINIPKLEEFKEIDDVICLDKIDIGTTIVLNNVFFDVNKSTLRKESETELDKLFDILSKNPKIKIEVAGHTDSDGDTQANLTLSDARAHTVKDYLIGKGISADRIIYVGHGEGKPVVPNDTPENKQLNRRTEIKILEN | failed
12 | MYKLSLVIKSLIIALLTTSLLSAGFQLRGDYLLDDDLQTLYVSSSDIHGELTRLVKLNLTRNQVNVLKHSKADVPELRILSDKLDRRTLSLFSNGQVAEYELIYSVHYQVRFTGEDARDFRFELYRDYQDDPNIALAKSRELSLLLSEMRTSAADKILRDLARIQRLEHHHHHH | failed
13 | MYKSLFTIIILLYSASSYAKSESPPASTITFIAQIDHVELNKTALSHDMKLVLADRFYFKTSNPCETNSISARPESMDITDKAYADKLKKLETPFLDDRYFFMTINQCDGNGTPMLTDIKVCTTELCGAEYTKKMSTVWLDETLKPTAKRLAIYFIQSPLPYDEEKKQWKVTGWYISSTDNQSSTKQIAFEGYTDTDNLSDSKFISSFKSWFESGKIKNIANYNPKGERDGKYESYYNSNGNVYESLSFSNGLINGEFITYYENGAIESKRHFNNDKIKDGECPHFYEDGKIKQQHSYLNSKLDGPAYEYYPDGKLMQENFYQQSVLIGNDTSYYQSGKISSIHNRNSRGQYDGANERYSEEGKLLSKSVYKDGKQISVQTWYENGQKEEEKHFDEQGQLNGLVKQWYKNGNLAKSQNYKHDILDGNSEEWYENGIPESLYPYKNGKTDGIAKSWNKYGKLTYSIEYKNGVENGAYRNWSKNTGKLTKETLYVNGIRQGVEKEFNDRTGKLLTSTQYVNNKRHGTEETYDQNGIKYITCYQNDQKLSSLDNPTQIKDNATTGDSSAQFALGKYEFICANIDEGIKWLTKSAEQKNTDAIYFLATAYKGNGIPANNEKYLAYLQQAATLGSSNAQAEIGYLYLIGKELPQNLPDAGVWFKKAAAQGNFAAHFYLGRMYQNGDGVERNMEKARFHLSNAAEGGIEPALKALNELEHQTK | failed
14 | MYLAASADTKPLPDSDDEEDQHTNAVSIPIAVHNMASALLQVEQAIGKRFLKEPYGMKKWDPKQEALKLACDSRLHQWEVSLMESTSFAQVFLHLNILHDCIQWRRSTNKSLCKVCRRGSDPEKMLLCDECNAGTHMFCLKPKLRSVPPGNWYCNDCVKSLGLSNG | failed
15 | MYLVCGEALFDVFSLESAARSNELGFTAIAGGSPFNVAVGLRRLGVEAALFGGLSSDYLGARLRRVLEEEGVDCGFLVPSDAPTTLAMVGLDASGSAQYQFRGEGCADRQVRLEHLPTLDGRIRGLHVGSYTLVVTPVADTLLALVRRESGRRLVSLDPNVRLDPQPDIDLWRRRVEAFASHAHLIKASEEDLALLYPGRDPGEVARGWLNPRCRLVFVTHGGAGASVHCTHGSWSRPADTALPLRDTVGAGDTFQAATLAYLRRLDADSPAGLAALSREAIDAMLAFAIRAAAVTCSRVGPDLPFAHEL | failed
16 | MYNAQLGIGILKYVNTMTKYSALLVLFLFSMIANSINAQPFVALDNRNKIELNEHDLWFKTQSLDTNPSFLALSQLHQNANRVTSTFGGSGAYISKIKLTNTKGQKDTWFVNIHAVYLDIGTAYWQPEHGEPIVLESFGHMGSENPKLAHSQAFSLLLNQNESGTLWVYIQAKMFATPVVVELYSKKEFYKKQFITNSISTISFTVMMTLALIAFFIYLRTKYLVTLACTGYIGIQGLGWFTASGSFGHLLTVSAFNPVYSGIIIFPFAIASASQFTKLLFNCPQKHPKLTLTFNLLSIVCFSLGIIMPFIPFTQSFLISHIIATIWIPLCIGTGIFMLAKNDFRAKYYLIGNLVYGFTLAGYILSHLYKIDWNISLEVIVQIALTIDCMCILLSLSEWLQIQQKEFHRSYAISRIDPLTQIGNRFAQNEKLASLKGPYCITFIDLDGFKKINDKLGHEEGDKVLIATANIMQKKLQELGSIYRCGGDEFIWVVDIENVQQTEAIITKLSDLLLQTEKELQHRGWSEAGLSFGIATSFETLNQSECLSLADQRMYKYKQDKKSIKGLAACS | failed
17 | MYNILLIFIAFLLVLLNAFFVSAEFGMVKLRATRIQAIKENYGLRGRILEQVHQNLDAYLSACQLGITLASLGLGWIGEPAFAELLGPLFVALGISSVHIVTISSFFIAFFLISFLHIVIGELMPKSIAIRQSELISIWTAVPLYWFYWIMYPAIWLLNTCSNFFLKLSGMDIKNEYEGFYSSEELKLILSGQHLQSELKEDEREILEHTLDLAELNVTEVMRPEDEMIIIDINEPFETIKDKILKYRYSRYPVYDSGTKEMIGVIHVKDLFADLLLQKNINTLKPYVRPVLKVSHKLPAMDLLRKFRAGMPHFALVYKHKSSLLGFVTLDNLLHILIGRIKDEFHKTHEDWVKNSDGTITTKGDCSLYSLERALDCDITLSPDEEELNTLYGLIITRHGKLPNEGEIIQFVEFDALIEKVQDSFITKIKVFPKIKN | failed
18 | MYNKTILESQHTLIPMPSTSTNAQPTLAKQLFTMTWPMLFGVLSLMSFQLVDSAFIGQLGVLPLAAQGFTLPLQMVIIGIQVGLGIATTAVISKALGANDARYAKQLGGLVLMIGSIGVAVFGLLIWLLRYPILSLLSAPETVMPIIDSYWPWWLLSSWAGAVLYFYYSICRANGNTMLPGTMMMVTSGVNLVLDPLFIFTLDLGINGAALATLVAFGFGILVVAPRVKRNHWATTQWQDLNVMKSVTSIGNIMGPAMVSQLLPPLSSMLATKLLASFGTAAVAAWALGSRYEFFAIVSVLALTMSMPPMVGRLLGAKNYRDIQSLVGIAVKFILGFQLLIAAITFLLANPLALLMTSDTQVEQVLHMHLMIVPISLGSLGVCMLMVSICNALGKSYTALTISALRLFVFFLPCLWLGAQLDGIRGLLFGACVGNIMAGISAYLTYRKTIHKLAIKQATA | failed
